Measured values: publication PMC6733935, “A convenient and efficient total solid-phase synthesis of DOTA-functionalized tumor-targeting peptides for PET imaging of cancer” (EJNMMI Research, 2019)
Square brackets hold non-standard residues; d marks the D form. Peptide text beside a SMILES is read from it. * marks the point of attachment. DOTA = O=C(O)CN1CCN(CC(=O)O)CCN(CC(=O)*)CCN(CC(=O)O)CC1; Cha = N[C@@H](CC1CCCCC1)C(=O)O; 4Abz = Nc1ccc(C(=O)O)cc1; Nle = CCCC[C@H](N)C(=O)O; Ahx = NCCCCCC(=O)O

Key:
[1] = target: T1, BN/GRP receptor-positive PC3 human prostate cancer cells (Homo sapiens, UniProt P30550); test: Saturation binding assay on PC3 cells; conditions: n = 3-5 experiments; for Bmax (apparent number of binding sites per cell): SD < 15%
T1 construct: BN/GRP receptor-positive MDA-MB-231, MCF7, T47D human breast cancer, and PC3 human prostate cancer lines; host or cells: MDA-MB-231, MCF7, T47D (human breast cancer), PC3 (human prostate cancer); intact cells
Description: (§1) The cell binding of ^68Ga-radiolabeled peptides into BN/GRP receptor-positive MDA-MB-231, MCF7, T47D human breast cancer, and PC3 human prostate cancer lines (American Type Culture Collection, Rockville, MD, USA) was performed according to the method described previously. In brief, ∼ 300,000 cells (in 300 μL in low-serum media) were incubated with various amounts of radiopeptides, ranging between 0.1 and 25 nM of peptide (prepared from the serial dilutions of HPLC-purified radiopeptides), in duplicate for 60 min at room temperature. The initial concentrations of ^68Ga-labeled peptides were determined according to a well-established HPLC technique with simultaneous detection by UV absorbance. As the amount of BN peptide in the reaction mixture was too small to be detected by UV absorption at 220 nm, the radioactive peptide chromatograms from the HPLC analysis were compared (with UV chromatograms) with those of known concentrations of the corresponding nonradioactive peptides for the mass determination. Incubation was terminated by dilution with cold saline (300 μL) and the cells were pelleted by centrifugation. The cell pellets was then rapidly washed with cold saline to remove any unbound peptide and centrifuged to collect supernatants. Radioactivity in the cell pellet and the washings was measured in a γ-counter. Non-specific binding was determined in the presence of ~ 200-fold molar excess of unlabeled BN peptide. Specific binding is calculated by subtracting the non-specifically bound radioactivity from that of the total binding. The dissociation constant (Kd) was calculated using a plot of cell bound activity versus the concentration of the radioligand using GraphPad Prism software (GraphPad Software Inc., San Diego, CA, USA).

MDA-MB-231 tumors = test: in vivo; format: in vivo, nude mice; conditions: for Radioactivity in Urine + bladder / Uptake in Blood / Uptake in Intestines (measured without their contents) / Uptake in Kidneys / Uptake in Liver / Uptake in Lungs / Uptake in Muscle / Uptake in Pancreas / Uptake in Spleen / Uptake in Stomach: female, nude, mouse, in vivo; for Uptake in Tumor: nude mice with MDA-MB-231 tumors, mean ± SD, n = 3-5
Description: BN/GRP receptor-positive MDA-MB-231 and PC3 cell lines (American Type Culture Collection, Rockville, USA) were grown as monolayers at 37 °C in a humidified atmosphere containing RPMI-1640 culture media with 10% fetal bovine serum (FBS) in tissue culture flasks. Twenty-four hours prior to conducting the tumor implantation, the media was replaced with RPMI-1640/10% FBS. The cells were grown to 80-90% confluency and harvested by trypsinization. After centrifugation, about 50 million cells were suspended in 1 mL media for implantation into mice. To prepare cells for inoculation, MDA-MB-231 or PC3 cancer cells with media were centrifuged, the media decanted, and the cell pellet was mixed with phosphate-buffered saline (PBS) to reach a concentration of approximately 5 million cells per 100 μL PBS. Human MDA-MB-231 breast cancer xenografts female mouse models were used for in vivo tumor-targeting experiments. For the implantation of tumor xenografts, approximately five million MDA-MB-231 cells in suspension of 100 μL sterile PBS were injected subcutaneously into the left thigh of each mouse. Tumors were allowed to grow for 4-6 weeks by which tumors had reached weights of 200-300 mg. After sufficient growth of tumors, animals were injected with 20-30 μCi of the radiotracers and the animals were sacrificed at specified time points. The uptake of ^68Ga-radiolabeled peptides in the tumors and other major body organs was calculated by γ-counting as described above.

[2] = Radio-HPLC retention time as reflection of lipophilicity; format: physicochemical; conditions: chromatographic, econosphere C18 (10 μm, 250 × 4.6 mm), 0.1% TFA water/acetonitrile, 5 to 95% B over 30 min, 1.1 mL/min; radio detection; used as reflection of lipophilicity
Description: The HPLC analysis and purification of the peptides were performed on a Shimadzu HPLC system using econosphere C18 reversed-phase column (10 μm, 250 × 4.6 mm). For all HPLC experiments, a gradient system of 0.1% (v/v) TFA in water (solvent A) and 0.1% (v/v) TFA in acetonitrile (solvent B) at a flow rate of 1.1 mL/min was used. The HPLC gradient began with a solvent composition of 95% A and 5% B from 0 to 2.5 min followed by a linear gradient of 95% A and 5% B to 5% A and 95% B over 30 min. The gradient remained at this position for 3 min before switching back to 95% A and 5% B for another 7 min. The major peak isolated and the acetonitrile was then slowly evaporated under a stream of nitrogen gas. Radiochemical purity was estimated by evaluating radioactivity peaks eluted for each ^68Ga-labeled peptide from the HPLC column and calculating the area under the peak (ROI). The main peak of each radiopeptide was isolated and reconstituted in sterile saline for in vitro and in vivo experiments. Radiolabeling of DOTA-coupled BN peptides with ^68Ga was accomplished simply by mixing ~ 20 μg BN peptide with sodium acetate buffer and ^68GaCl3 followed by heating to complete the labeling reaction. By this facile method, a high and reproducible radiolabeling of peptides with ^68Ga was achieved (up to 95%), with a specific radioactivity of greater than 250 Ci/mmol. […] A radiolabeling efficiency of greater than 90% was obtained in all cases, and it ranged between 90 and 95%. […] RP-HPLC retention times of the major peaks, ranging from 18.3 to 20.3 min, reflected slightly variable lipophilicity of these ^68Ga-complexes (Table 1).

[3] = target: T2, BN/GRP receptor-positive MCF7 human breast cancer cells (Homo sapiens, UniProt P30550); test: Saturation binding assay on MCF7 cells; conditions: n = 3-5 experiments; for Bmax (apparent number of binding sites per cell): SD < 15%
T2 construct: BN/GRP receptor-positive MDA-MB-231, MCF7, T47D human breast cancer, and PC3 human prostate cancer lines; host or cells: MDA-MB-231, MCF7, T47D (human breast cancer), PC3 (human prostate cancer); intact cells
Description: as §1

[4] = target: T3, BN/GRP receptor-positive MDA-MB-231 human breast cancer cells (Homo sapiens, UniProt P30550); test: Saturation binding assay on MDA-MB-231 cells; conditions: n = 3-5 experiments; for Bmax (apparent number of binding sites per cell): SD < 15%
T3 construct: BN/GRP receptor-positive MDA-MB-231, MCF7, T47D human breast cancer, and PC3 human prostate cancer lines; host or cells: MDA-MB-231, MCF7, T47D (human breast cancer), PC3 (human prostate cancer); intact cells
Description: as §1

[5] = target: T4, BN/GRP receptor-positive T47D human breast cancer cells (Homo sapiens, UniProt P30550); test: Saturation binding assay on T47D cells; conditions: n = 3-5 experiments; for Bmax (apparent number of binding sites per cell): SD < 15%
T4 construct: BN/GRP receptor-positive MDA-MB-231, MCF7, T47D human breast cancer, and PC3 human prostate cancer lines; host or cells: MDA-MB-231, MCF7, T47D (human breast cancer), PC3 (human prostate cancer); intact cells
Description: as §1

[6] = ~300,000 cells, 0.1-25 nM radiopeptide, 60 min, room temperature, mean ± SD

| Compound | Bmax (apparent number of binding sites per cell) [1] | Radioactivity in Urine + bladder (MDA-MB-231 tumors; 1 h) | Uptake in Blood (MDA-MB-231 tumors; 1 h) [% ID/g] | Uptake in Intestines (measured without their contents) (MDA-MB-231 tumors; 1 h) [% ID/g] | Uptake in Kidneys (MDA-MB-231 tumors; 1 h) [% ID/g] | Uptake in Liver (MDA-MB-231 tumors; 1 h) [% ID/g] | Uptake in Lungs (MDA-MB-231 tumors; 1 h) [% ID/g] | Uptake in Muscle (MDA-MB-231 tumors; 1 h) [% ID/g] | Uptake in Pancreas (MDA-MB-231 tumors; 1 h) [% ID/g] | Uptake in Spleen (MDA-MB-231 tumors; 1 h) [% ID/g] | Uptake in Stomach (MDA-MB-231 tumors; 1 h) [% ID/g] | Radioactivity in Urine + bladder (MDA-MB-231 tumors; 2 h) | Uptake in Blood (MDA-MB-231 tumors; 2 h) [% ID/g] | Uptake in Intestines (measured without their contents) (MDA-MB-231 tumors; 2 h) [% ID/g] | Uptake in Tumor (MDA-MB-231 tumors; 1 h p.i.) [% ID/g] | Uptake in Tumor (MDA-MB-231 tumors; 2 h p.i.) [% ID/g] | Radio-HPLC tR [2] [min] | Bmax (apparent number of binding sites per cell) [3] | Bmax (apparent number of binding sites per cell) [4] | Bmax (apparent number of binding sites per cell) [5] | other results |
| --- | --- | --- | --- | --- | --- | --- | --- | --- | --- | --- | --- | --- | --- | --- | --- | --- | --- | --- | --- | --- | --- |
| CCCC[C@H](NC(=O)[C@H](Cc1c[nH]cn1)NC(=O)[C@H](CC1CCCCC1)NC(=O)[C@@H](NC(=O)[C@H](C)NC(=O)[C@H](Cc1c[nH]c2ccccc12)NC(=O)[C@H](CCC(N)=O)NC(=O)[C@H](CS)NC(=O)CNC(=O)CNC(=O)CCCCCNC(=O)CN1CCN(CC(=O)O)CCN(CC(=O)O)CCN(CC(=O)O)CC1)C(C)C)C(=O)N[C@@H](CCSC)C(N)=O [^68Ga-DOTA-Ahx-BN Tris-, metal not drawn] ({DOTA-Ahx}-GGCQWAV[Cha]H[Nle]M-NH2) | 4.88 × 10^5 sites/cell | 66.0 ± 6.60 % injected dose per tissue | 0.70 ± 0.12 | 0.89 ± 0.12 | 4.85 ± 0.43 | 2.20 ± 0.33 | 1.86 ± 0.14 | 0.28 ± 0.04 | 1.30 ± 0.18 | 0.33 ± 0.02 | 0.87 ± 0.11 | 68.0 ± 7.55 % injected dose per tissue | 0.60 ± 0.09 | 0.50 ± 0.10 | 2.09 ± 0.33 | 1.62 ± 0.18 | 18.3 | 6.22 × 10^5 sites/cell | 5.27 × 10^5 sites/cell | 4.91 × 10^5 sites/cell | Kd [1, 6]: 10.4 ± 1.71 nM; Uptake in Kidneys (MDA-MB-231 tumors; 2 h): 3.74 ± 0.24 % ID/g; Uptake in Liver (MDA-MB-231 tumors; 2 h): 1.83 ± 0.24 % ID/g; Uptake in Lungs (MDA-MB-231 tumors; 2 h): 0.61 ± 0.07 % ID/g; Uptake in Muscle (MDA-MB-231 tumors; 2 h): 0.20 ± 0.02 % ID/g; Uptake in Pancreas (MDA-MB-231 tumors; 2 h): 0.75 ± 0.11 % ID/g; Uptake in Spleen (MDA-MB-231 tumors; 2 h): 0.16 ± 0.01 % ID/g; Uptake in Stomach (MDA-MB-231 tumors; 2 h): 0.60 ± 0.07 % ID/g; Kd [3, 6]: 9.32 ± 1.5 nM; Kd [4, 6]: 11.6 ± 3.05 nM; Kd [5, 6]: 14.5 ± 2.4 nM |
| CCCC[C@H](NC(=O)[C@H](Cc1c[nH]cn1)NC(=O)[C@H](CC1CCCCC1)NC(=O)[C@@H](NC(=O)[C@H](C)NC(=O)[C@H](Cc1c[nH]c2ccccc12)NC(=O)[C@H](CCC(N)=O)NC(=O)[C@H](CS)NC(=O)CNC(=O)CNC(=O)c1ccc(NC(=O)CN2CCN(CC(=O)O)CCN(CC(=O)O)CCN(CC(=O)O)CC2)cc1)C(C)C)C(=O)N[C@@H](CCSC)C(N)=O [^68Ga-DOTA-Abz-BN Cyclen, metal not drawn] ({DOTA-4Abz}-GGCQWAV[Cha]H[Nle]M-NH2) | 4.30 × 10^5 sites/cell | – | – | – | – | – | – | – | – | – | – | – | – | – | 1.84 ± 0.40 | 1.30 ± 0.37 | 19.2 | 5.12 × 10^5 sites/cell | 6.09 × 10^5 sites/cell | 1.17 × 10^5 sites/cell | – |
| CCCC[C@H](NC(=O)[C@H](Cc1c[nH]cn1)NC(=O)[C@H](CC1CCCCC1)NC(=O)[C@@H](NC(=O)[C@H](C)NC(=O)[C@H](Cc1c[nH]c2ccccc12)NC(=O)[C@H](CCC(N)=O)NC(=O)[C@H](CS)NC(=O)CNC(=O)CNC(=O)c1ccc(NC(=O)CN2CCN(CC(=O)O)CCN(CC(=O)O)CCN(CC(=O)O)CC2)cc1)C(C)C)C(=O)N[C@@H](CCSC)C(N)=O [^68Ga-DOTA-Abz-BN Tris-, metal not drawn] ({DOTA-4Abz}-GGCQWAV[Cha]H[Nle]M-NH2) | 5.90 × 10^5 sites/cell | 58.0 ± 6.25 % injected dose per tissue | 0.93 ± 0.22 | 1.01 ± 0.17 | 6.52 ± 0.60 | 2.28 ± 0.31 | 1.82 ± 0.30 | 0.36 ± 0.07 | 1.81 ± 0.22 | 0.18 ± 0.03 | 1.0 ± 0.20 | 65.0 ± 9.13 % injected dose per tissue | 0.64 ± 0.16 | 0.76 ± 0.12 | 2.15 ± 0.33 | 1.37 ± 0.25 | 19.3 | 4.86 × 10^5 sites/cell | 5.89 × 10^5 sites/cell | 1.0 × 10^5 sites/cell | Uptake in Kidneys (MDA-MB-231 tumors; 2 h): 3.96 ± 0.48 % ID/g; Uptake in Liver (MDA-MB-231 tumors; 2 h): 1.71 ± 0.20 % ID/g; Uptake in Lungs (MDA-MB-231 tumors; 2 h): 1.26 ± 0.25 % ID/g; Uptake in Muscle (MDA-MB-231 tumors; 2 h): 0.28 ± 0.04 % ID/g; Uptake in Pancreas (MDA-MB-231 tumors; 2 h): 0.93 ± 0.15 % ID/g; Uptake in Spleen (MDA-MB-231 tumors; 2 h): 0.09 ± 0.02 % ID/g; Uptake in Stomach (MDA-MB-231 tumors; 2 h): 0.52 ± 0.13 % ID/g |
